Our source for the amount of peptide eluted from MHC II and copies per cell presented on MHC II values is paper PMC3408443.

The assay has as its target MHC II molecules of Flt3L-mobilized splenic CD11c+ DCs from Balb/c×C57Bl/6 (I-A^b,d/E^d) F1 mice (mouse (endogenous in splenic DCs)). The experiment in a line: affinity purification with mass spectrometry.

In turn, KELEEQLGPVAEETR [… MHC II peptide derived from endogenous apolipoprotein E] registered an amount of peptide eluted from MHC II of 15 fmol/µL and a copies per cell presented on MHC II of 180 copies/cell.
